Here are results for 23 molecules from patent US20220098256A1 (TOKUSHIMA UNIVERSITY, published 2022).

Positions of bridges follow the written chain, without caps; N, C: chain ends. Non-standard residues stand in square brackets, D forms with d. No end group written: not given here. Nle = CCCC[C@H](N)C(=O)O

Assay [1] deals with brefeldin A-inhibited guanine nucleotide-exchange protein 3 (BIG3) (human) (UniProt Q5TH69). Description: co-immunoprecipitation with anti-BIG3 antibody from peptide-treated MCF-7 cells, PHB2 immunoblot, band area against untreated cells; 50 µM peptide.
Assay [2] has the same target. Description: cell-based or functional assay.
Assay [3] shares this target. Description: co-immunoprecipitation from peptide-treated MCF-7 cells, Western blotting; 10 µM each peptide.
Assay [4] has the same target. Nature of the assay: co-immunoprecipitation with anti-BIG3 antibody from peptide-treated MCF-7 cells, PHB2 immunoblot, band area against untreated cells; 50 µM each peptide.
Assay [5] has as its target brefeldin A-inhibited guanine nucleotide-exchange protein 3 (BIG3) (human, UniProt Q5TH69 1-2177). Nature of the assay: cell-based or functional assay.

Sequence of brefeldin A-inhibited guanine nucleotide-exchange protein 3 (BIG3) (Q5TH69 whole entry): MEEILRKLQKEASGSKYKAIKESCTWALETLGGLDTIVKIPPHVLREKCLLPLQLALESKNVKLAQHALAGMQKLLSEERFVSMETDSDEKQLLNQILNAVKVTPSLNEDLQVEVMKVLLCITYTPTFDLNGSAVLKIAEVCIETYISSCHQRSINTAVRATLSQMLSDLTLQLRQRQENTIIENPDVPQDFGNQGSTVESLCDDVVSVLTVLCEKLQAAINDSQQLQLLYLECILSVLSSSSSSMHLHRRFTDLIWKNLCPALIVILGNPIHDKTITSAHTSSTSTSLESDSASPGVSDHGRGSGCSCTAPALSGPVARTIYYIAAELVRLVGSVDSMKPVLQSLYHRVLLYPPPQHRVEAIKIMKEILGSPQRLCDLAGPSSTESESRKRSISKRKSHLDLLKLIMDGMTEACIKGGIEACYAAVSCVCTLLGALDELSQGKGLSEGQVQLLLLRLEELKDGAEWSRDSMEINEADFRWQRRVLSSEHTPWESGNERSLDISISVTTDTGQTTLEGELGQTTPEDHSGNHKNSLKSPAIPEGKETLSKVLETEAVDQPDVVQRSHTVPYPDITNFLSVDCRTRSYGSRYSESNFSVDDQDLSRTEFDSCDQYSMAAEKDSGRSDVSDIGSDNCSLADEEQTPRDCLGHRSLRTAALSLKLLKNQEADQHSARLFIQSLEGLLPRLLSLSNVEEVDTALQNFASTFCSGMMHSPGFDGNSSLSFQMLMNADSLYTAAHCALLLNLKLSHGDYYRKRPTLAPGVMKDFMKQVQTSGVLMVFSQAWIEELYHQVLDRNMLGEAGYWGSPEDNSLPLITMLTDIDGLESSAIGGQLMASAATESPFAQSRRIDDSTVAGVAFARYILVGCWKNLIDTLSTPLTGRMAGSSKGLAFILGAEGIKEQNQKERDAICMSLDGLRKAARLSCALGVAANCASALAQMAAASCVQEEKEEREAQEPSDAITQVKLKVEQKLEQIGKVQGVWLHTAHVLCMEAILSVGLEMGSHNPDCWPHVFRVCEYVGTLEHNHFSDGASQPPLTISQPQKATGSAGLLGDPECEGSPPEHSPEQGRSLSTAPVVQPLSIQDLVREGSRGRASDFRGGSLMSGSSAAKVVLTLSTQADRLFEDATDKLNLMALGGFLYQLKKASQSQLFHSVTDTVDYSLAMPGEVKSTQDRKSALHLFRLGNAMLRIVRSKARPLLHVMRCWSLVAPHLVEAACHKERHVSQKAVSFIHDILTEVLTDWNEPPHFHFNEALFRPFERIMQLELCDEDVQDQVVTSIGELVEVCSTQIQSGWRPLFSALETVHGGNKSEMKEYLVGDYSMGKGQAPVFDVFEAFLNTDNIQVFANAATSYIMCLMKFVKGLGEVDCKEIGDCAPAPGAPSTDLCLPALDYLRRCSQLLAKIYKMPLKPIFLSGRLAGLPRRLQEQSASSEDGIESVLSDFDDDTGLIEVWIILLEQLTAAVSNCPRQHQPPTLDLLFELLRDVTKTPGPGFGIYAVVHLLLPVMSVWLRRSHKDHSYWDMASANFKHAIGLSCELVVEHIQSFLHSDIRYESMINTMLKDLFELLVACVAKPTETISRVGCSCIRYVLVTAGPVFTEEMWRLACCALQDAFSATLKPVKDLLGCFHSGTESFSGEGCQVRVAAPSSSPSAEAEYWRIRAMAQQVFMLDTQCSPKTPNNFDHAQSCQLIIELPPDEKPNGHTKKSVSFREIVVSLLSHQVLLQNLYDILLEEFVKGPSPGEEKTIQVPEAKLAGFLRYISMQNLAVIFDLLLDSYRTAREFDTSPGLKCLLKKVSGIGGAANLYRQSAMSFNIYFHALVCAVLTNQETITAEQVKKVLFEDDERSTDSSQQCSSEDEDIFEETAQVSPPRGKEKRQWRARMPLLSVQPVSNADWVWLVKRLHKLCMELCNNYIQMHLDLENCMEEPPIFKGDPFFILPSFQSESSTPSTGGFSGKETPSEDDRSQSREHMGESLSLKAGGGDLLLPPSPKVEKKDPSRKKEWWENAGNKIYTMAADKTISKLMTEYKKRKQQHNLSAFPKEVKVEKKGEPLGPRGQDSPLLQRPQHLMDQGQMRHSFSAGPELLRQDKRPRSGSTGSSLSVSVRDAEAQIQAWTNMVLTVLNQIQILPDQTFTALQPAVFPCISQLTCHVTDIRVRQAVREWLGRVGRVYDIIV
Sequence of brefeldin A-inhibited guanine nucleotide-exchange protein 3 (BIG3) (human) (Q5TH69 whole entry): as above

Regarding “PHB2 sequence-derived peptide No. 5 (76-90aa)”, in assay [1], the inhibition ratio of the binding between BIG3 and PHB2 is 80%. Besides, in assay [2], the IC50 against growth of triple-negative breast cancer cell line MDA-MB-231, 96 h is 273 nM; the Ser39 phosphorylation of PHB2, band intensity compared to ERAP treatment is 20%; the suppression of growth of MDA-MB-231, peptide alone at its IC50, 96 h amounted to 50%; the suppression ratio of E2-dependent growth of MCF-7, 10 µM, 24 h came to 51%. In assay [2], the suppression ratio of E2-dependent growth of MCF-7, peptide alone worked out at 55%; the suppression ratio of estrogen (E2)-dependent growth of MCF-7, 10 µM, 24 h amounted to 49%; the suppression ratio of estrogen-dependent growth of MCF-7, 10 µM, 24 h was determined as 54%.

As for “PHB2 sequence-derived peptide No. 1 (11-22aa)”, the inhibition ratio of the binding between BIG3 and PHB2 in assay [1] came out at 64%. Further, in assay [2], the IC50 against growth of triple-negative breast cancer cell line MDA-MB-231, 96 h came out at 462 nM; the Ser39 phosphorylation of PHB2, band intensity compared to ERAP treatment came out at 40%; the suppression of estrogen-dependent growth of MCF-7, 10 µM, 24 h is 65%; the suppression of growth of MDA-MB-231, peptide alone at its IC50, 96 h turned out to be 50%. Also, in assay [2], the suppression ratio of E2-dependent growth of MCF-7, 10 µM, 24 h came out at 63%; the suppression ratio of E2-dependent growth of MCF-7, peptide alone came out at 65%; the suppression ratio of estrogen (E2)-dependent growth of MCF-7, 10 µM, 24 h is 58%.

Take “combination of cyclic PHB2 peptides 11-21aa and 76-88aa”: the inhibition ratio of the interaction between BIG3 and PHB2 in assay [3] worked out at 81%. In assay [2], the suppression of E2-dependent growth of MCF-7, 4 µM cyclic 11-21aa and 2 µM cyclic 76-88aa, 24 hours was determined as 82%; the suppression ratio of E2-dependent growth of MCF-7, 4 µM cyclic 11-21aa and 2 µM cyclic 76-88aa, up to 96 hours was 88%; the suppression ratio of E2-dependent growth of MCF-7, 10 µM each, 24 h turned out to be 96%.

On to “combination of PHB2 peptides No. 1 (11-22aa) and No. 5 (76-90aa)”, for which the inhibition ratio of the binding between BIG3 and PHB2 in assay [4] was found to be 87%. The inhibition ratio of the interaction between BIG3 and PHB2 in assay [3] was found to be 67%. In assay [2], this molecule showed a Ser39 phosphorylation of PHB2, band intensity compared to ERAP treatment of 70%; a growth suppressive effect on E2-dependent growth of MCF-7 of 88%; a suppression of E2-dependent growth of MCF-7, 10 µM each of 100%; a suppression of growth of MDA-MB-231, both peptides at their IC50, 96 h of 62%.

Take EGGHRAIFFNRIGG (not fully specified (C-terminus)) [PHB2 sequence-derived peptide No. 82]: the “suppression ratio of estrogen-dependent growth of MCF-7, 10 µM, 24 h” value in assay [5] was found to be 59%.

As to ESVFTVEGGHRAIFFNRIGG (not fully specified (C-terminus)) [PHB2 sequence-derived peptide No. 83], in assay [5], the “suppression ratio of estrogen-dependent growth of MCF-7, 10 µM, 24 h” value is 61%.

For GPRGMGTALKLL (not fully specified (C-terminus)) [PHB2 sequence-derived peptide No. 40], in assay [5], the “suppression ratio of E2-dependent growth of MCF-7, in combination with 10 µM No. 5 (76-90aa)” value (“suppression ratio … with 10 µM No. 5 (76-90aa)” for short) was no less than 90%.

In the case of RLPA[dL]PR[dL]MGTARRRRRRRR (not fully specified (C-terminus)) [PHB2 peptide 11-22aa with glycines at positions 15 and 18 substituted with D-leucines], in assay [5], the “suppression ratio of estrogen-dependent growth of MCF-7” value was roughly 65%.

Take LKDLAGRLPAGP (not fully specified (C-terminus)) [PHB2 sequence-derived peptide No. 36]: the “suppression ratio … with 10 µM No. 5 (76-90aa)” value in assay [5] is no less than 90%.

For the molecule TVEGGHRAIRRRRRRRR-NH2 [PHB2 sequence-derived peptide No. 2 (42-50aa)], in assay [5], the “suppression ratio of estrogen-dependent growth of MCF-7, 10 µM, 24 h” value was found to be 20%.

As to QYPIAYDIRARPRKI (not fully specified (C-terminus)) [alanine-mutated PHB2 peptide No. 71], the “suppression ratio of estrogen-dependent growth of MCF-7, 10 µM, 24 h” value in assay [5] was determined as 38%.

Consider RPRKISSPTGSKDLQRRRRRRRR-NH2 [PHB2 sequence-derived peptide No. 6 (86-100aa)], for which the “suppression ratio of E2-dependent growth of MCF-7, peptide alone” value in assay [5] is roughly 10%.

Take ESVFTVEGGHRAIRRRRRRRR-NH2 [PHB2 sequence-derived peptide No. 3 (38-50aa)]: the “suppression ratio of estrogen-dependent growth of MCF-7, 10 µM, 24 h” value in assay [5] was determined as 17%.

RLPAGPRAMGTA (not fully specified (C-terminus)) [alanine-mutated PHB2 peptide No. 62]: the “suppression ratio of estrogen-dependent growth of MCF-7, 10 µM, 24 h” value in assay [5] worked out at 8%.

PAGPRGMGTALK (not fully specified (C-terminus)) [PHB2 sequence-derived peptide No. 39]: the “suppression ratio … with 10 µM No. 5 (76-90aa)” value in assay [5] is no less than 90%.

On to RLPAAPRGMGTA (not fully specified (C-terminus)) [alanine-mutated PHB2 peptide No. 59], for which, in assay [5], the “suppression ratio of estrogen-dependent growth of MCF-7, 10 µM, 24 h” value stood at 19%.

B1: cyclic PHB2 peptide 11-21aa (peptide)
peptide: CRLPAGPRG[Nle]GTCF[Nal]RRRR
modifications: disulfide 1-13; not fully specified; also: amide bond between the added C-terminal and N-terminal residues (cyclic)
Turning to B1, in assay [5], the “IC50 for E2-dependent growth of MCF-7” value was determined as 4060 nM; the “suppression ratio of E2-dependent growth of MCF-7, 4 µM, up to 96 hours” value amounted to 41%; the “suppression ratio of E2-dependent growth of MCF-7, 10 µM, 24-hour treatment” value came to 53%; the “suppression ratio of E2-dependent growth of MCF-7, 10 µM, after 96 hours” value was found to be 67%.

Consider QYPIIYAIRARPRKI (not fully specified (C-terminus)) [alanine-mutated PHB2 peptide No. 73], for which the “suppression ratio of estrogen-dependent growth of MCF-7, 10 µM, 24 h” value in assay [5] came out at 13%.

B2: PHB2 peptide 11-90aa (peptide)
peptide: RLPAGPRGMGTALKLLLGAGAVAYGVRESVFTVEGGHRAIFFNRIGGVQQDTILAEGLHFRIPWFQYPIIYDIRARPRKI
Regarding B2, in assay [5], the “Ser39 phosphorylation of PHB2, relative to ERAP treatment” value came out at 30% and the “suppression ratio of E2-dependent growth of MCF-7, 24 h, 50 µM” value turned out to be 57%.

Regarding AGRLPAGPRGMG (not fully specified (C-terminus)) [PHB2 sequence-derived peptide No. 38], the “suppression ratio … with 10 µM No. 5 (76-90aa)” value in assay [5] is no less than 90%.

As for QYPIIADIRARPRKI (not fully specified (C-terminus)) [alanine-mutated PHB2 peptide No. 72], the “suppression ratio of estrogen-dependent growth of MCF-7, 10 µM, 24 h” value in assay [5] is 37%.

Regarding DLAGRLPAGPRG (not fully specified (C-terminus)) [PHB2 sequence-derived peptide No. 37], the “suppression ratio … with 10 µM No. 5 (76-90aa)” value in assay [5] is no less than 90%.

B3: cyclic PHB2 peptide 76-88aa (peptide)
peptide: CQYPIIYDIRARPRCF[Nal]RRRR
modifications: disulfide 1-15 (inferred); not fully specified; also: X17: an unnatural amino acid, amide bond between the added C-terminal and N-terminal residues (cyclic)
With B3, in assay [5], the “IC50 for E2-dependent growth of MCF-7” value came to 2110 nM; the “suppression ratio of E2-dependent growth of MCF-7, 2 µM, up to 96 hours” value was 59%; the “suppression ratio of E2-dependent growth of MCF-7, 10 µM, 24-hour treatment” value is 58%; the “suppression ratio of E2-dependent growth of MCF-7, 10 µM, after 96 hours” value was found to be 72%.
